Article PMC11077948

What was measured:
[1] = target: S. mutans CLC^F F-/H+ antiporter encoded by ORF 1289 (Streptococcus mutans UA159); assay: cross-linking; 0.2 mg/mL purified protein in detergent (DM) with 0.125% glutaraldehyde (~500-fold molar excess) at room temperature for the indicated times, quenched with 0.15 M Tris-HCl pH 7.5, SDS-PAGE; monomer and dimer bands
[2] = target: S. mutans CLC^F homologue encoded by ORF 1290 (Streptococcus mutans UA159); assay: as above

“S. mutans CLC^F F-/H+ antiporter encoded by ORF 1289 (natural protein)” showed a stoichiometry N [1] of 2.

With “S. mutans CLC^F homologue encoded by ORF 1290 (natural protein)” the stoichiometry N [2] was 2.
